Series [1] has as its target T1, AtALDH10A8 (Arabidopsis thaliana, UniProt Q9S795).
T1 construct: gene ALDH10A8
T1 sequence (Q9S795 1-501): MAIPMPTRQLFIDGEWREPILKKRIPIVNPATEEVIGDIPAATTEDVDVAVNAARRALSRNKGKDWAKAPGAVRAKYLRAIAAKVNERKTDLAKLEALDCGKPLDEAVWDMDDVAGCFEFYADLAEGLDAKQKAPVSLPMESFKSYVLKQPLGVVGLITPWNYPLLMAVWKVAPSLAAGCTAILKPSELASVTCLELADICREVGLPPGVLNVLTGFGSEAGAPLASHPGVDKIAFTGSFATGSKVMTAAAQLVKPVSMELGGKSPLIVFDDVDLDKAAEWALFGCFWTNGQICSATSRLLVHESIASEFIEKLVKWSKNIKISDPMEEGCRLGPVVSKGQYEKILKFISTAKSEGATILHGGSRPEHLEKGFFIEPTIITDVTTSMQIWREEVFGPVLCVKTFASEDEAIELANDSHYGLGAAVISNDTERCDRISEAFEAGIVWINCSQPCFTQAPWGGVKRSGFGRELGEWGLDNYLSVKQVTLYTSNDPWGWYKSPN
The series is described as follows: NADH formation at […] nm, substrate-inhibition Michaelis-Menten fit. The class given is biochemical. The settings on record: substrate inhibition (partial); 100 μM NAD+, pH 8.5, room temperature; apparent.

In series [2] the target is T2, AtALDH10A9 (Arabidopsis thaliana, UniProt Q9STS1).
T2 construct: gene ALDH10A9
T2 sequence (Q9STS1 1-503): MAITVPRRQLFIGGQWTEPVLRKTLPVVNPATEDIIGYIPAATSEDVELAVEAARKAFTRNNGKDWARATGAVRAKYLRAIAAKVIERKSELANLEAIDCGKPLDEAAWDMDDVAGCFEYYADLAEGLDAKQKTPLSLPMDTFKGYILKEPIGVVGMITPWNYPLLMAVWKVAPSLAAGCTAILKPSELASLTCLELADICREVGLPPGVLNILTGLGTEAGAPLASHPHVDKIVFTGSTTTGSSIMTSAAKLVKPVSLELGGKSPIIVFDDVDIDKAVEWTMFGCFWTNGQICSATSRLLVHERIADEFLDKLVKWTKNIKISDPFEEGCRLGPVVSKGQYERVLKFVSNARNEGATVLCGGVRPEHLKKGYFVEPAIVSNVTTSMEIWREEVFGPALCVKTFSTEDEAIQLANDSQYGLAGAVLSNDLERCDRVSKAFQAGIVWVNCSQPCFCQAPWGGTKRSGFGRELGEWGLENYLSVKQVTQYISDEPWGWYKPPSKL
The description is as above. The series is classed as biochemical. As to conditions: 500 μM NAD+, pH 9.5, room temperature, apparent.

Substrate in series [3]: NC(=O)c1ccc[n+]([C@@H]2O[C@H](COP(=O)(O)OP(=O)(O)OC[C@H]3O[C@@H](n4cnc5c(N)ncnc54)[C@H](O)[C@@H]3O)[C@@H](O)[C@H]2O)c1
The series is described as follows: purified protein. The series is classed as biochemical, Arabidopsis thaliana. As to conditions: apparent, varied: cofactor.

Substrate in series [4]: NCCC=O
Nature of the series: purified protein. The series is classed as biochemical, Arabidopsis thaliana. As to conditions: apparent.

Substrate in series [5]: NCCCC=O
The series is described as follows: purified protein. The class given is biochemical, Arabidopsis thaliana. The settings on record: apparent.

Where [6] appears, read: co-substrate 30 μM APAL (subsaturating), pH 9.5, room temperature.
The mark [7] stands for this setting: 500 μM NAD+, pH 9.5, room temperature.
[8] abbreviates: co-substrate 7 μM APAL (subsaturating), pH 8.5, room temperature.
Where [9] appears, read: 100 μM NAD+, pH 8.5, room temperature.

`NCCCC=O` [ABAL]: the “AtALDH10A8 / Kis” value in series [1] came to 55.7 ± 26.0 µM. In addition, the “AtALDH10A9 / Kis” value in series [2] was 2600 ± 750 µM.
For `NCCC=O` [APAL], in that order: 5.5 ± 0.3 µM and 19000 ± 5800 µM.

B1: AtALDH10A9 (Arabidopsis thaliana) (protein)
chain: T2 sequence (Q9STS1 1-503)
A word on the Km: it is the concentration of substrate that gives half-maximal velocity. In general, kcat/Km refers to the turnover number divided by the Michaelis constant. On to B1, for which the results for the Km in series [3] (setting [6]), in series [4] (setting [7]) and in series [5] (setting [7]) were 86 ± 16 µM, 17.3 ± 4.1 µM and 460 ± 65 µM, respectively. For the same molecule, the kcat/Km in series [3] (setting [6]) worked out at 0.15 µM⁻¹ s⁻¹; in series [4] (setting [7]) it was 0.82 µM⁻¹ s⁻¹; in series [5] (setting [7]) it was 0.02 µM⁻¹ s⁻¹.

B2: AtALDH10A8 (Arabidopsis thaliana) (protein)
chain: T1 sequence (Q9S795 1-501)
For the molecule B2, the Km in series [3] (setting [8]) is 13.2 ± 1.5 µM; in series [4] (setting [9]), 14.4 ± 2.7 µM; in series [5] (setting [9]), 25.1 ± 2.5 µM. The kcat/Km in series [3] (setting [8]) was determined as 0.26 µM⁻¹ s⁻¹; in series [4] (setting [9]) it was 1.03 µM⁻¹ s⁻¹; in series [5] (setting [9]), 0.06 µM⁻¹ s⁻¹.
